Measured values: patent US20240409645A1 (DUALYX, published 2024)

T1: human IL-2Rβ (human, UniProt P14784 27-240, limits assumed)
T1 construct: Recombinant protein, coated (ELISA) or immobilised on CM5 (SPR); also called hu IL-2R; interleukin 2 receptor β-chain
T1 sequence: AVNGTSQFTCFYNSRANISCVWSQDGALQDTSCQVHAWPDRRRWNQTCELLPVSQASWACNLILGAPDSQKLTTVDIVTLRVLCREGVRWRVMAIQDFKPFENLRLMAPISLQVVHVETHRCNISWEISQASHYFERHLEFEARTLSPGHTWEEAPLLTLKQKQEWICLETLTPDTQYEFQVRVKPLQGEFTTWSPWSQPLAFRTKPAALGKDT

T2: human IL-2Rγ (common cytokine receptor γ-chain) (human, UniProt P31785 23-262, limits assumed)
T2 construct: Recombinant protein coated on the plate or immobilised on a CM5 chip; also called hu IL-2R; CD132
T2 sequence: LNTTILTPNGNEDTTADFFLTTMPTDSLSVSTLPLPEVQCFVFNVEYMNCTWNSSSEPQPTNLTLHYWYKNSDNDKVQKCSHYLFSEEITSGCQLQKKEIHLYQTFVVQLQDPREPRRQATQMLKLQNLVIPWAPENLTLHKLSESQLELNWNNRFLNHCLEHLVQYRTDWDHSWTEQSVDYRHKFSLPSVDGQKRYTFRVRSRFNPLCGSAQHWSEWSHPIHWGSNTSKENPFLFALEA


Columns and labels:
human IL-2Rβ [1] = target: T1, human IL-2Rβ; test: P.E. binding ELISA on coated protein
Procedure, shortened: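 Plates were coated overnight at 4° C with human or mouse IL-2R chain protein, and free sites blocked for 1 hour in 4% Marvel in PBS. Periplasmic extracts diluted 1:5 in 1% Marvel/PBS then bound for 1 hour, with specificity assessed from 450 nm absorbance relative to negative controls.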

human IL-2Rβ [2] = target: T1, human IL-2Rβ; test: SPR (Biacore), P.E. off-rate ranking
[3] = target: T2, human IL-2Rγ (common cytokine receptor …); test: PE binding ELISA, periplasmic extract on coated protein
Experimental: In a binding ELISA, human or mouse IL-2Rα, IL-2Rβ and IL-2Rγ proteins were coated directly on maxisorp microtiter plates overnight at 4° C. Free binding sites were blocked using 4% Marvel in PBS for 1 hour. Next, 1:5 dilution of P.E. in 1% Marvel/PBS were added to wells and incubated for 1 hour. […] Binding specificity was determined based on O.D. at 450 nm values compared to negative controls.

| P.E. binding ELISA OD (human IL-2Rβ [1]) | koff (human IL-2Rβ [2]) | OD (PE binding ELISA) [3] | Binder |
| --- | --- | --- | --- |
| 0.26 OD450 nm | 0.00165 s⁻¹ | – | FJ1427_P035MP03G10 (VHH, soluble VHH in periplasmic extract; also called clone nr) VHH: QVQLVESGGGLVQAGGSLRLSCAASGRSYAMGWFRQAPGKEREFVAAISWSASSTYYSESVKGRFTISRENAKNTVYLQMNSLKPEDTAVYYCAVRASPFVAGSYDPSDDPADYGSWGQGTQVIVSS |
| 0.914 OD450 nm | 0.000351 s⁻¹ | – | FJ1427_P035MP03G05 (VHH, soluble VHH in periplasmic extract; also called clone nr) VHH: EVQLVESGGGLVQIGGSLRLSCAASGRTFSSITMAYFRQVPGKEREWVAGINFSGTRTFYADSVKGRFLISRDDAKSTMYLQMNSLKPEDTAVYYCAASPRGFYGPGNALYDYWGQGTQVTVSS |
| 0.166 OD450 nm | 0.00184 s⁻¹ | – | FJ1427_P035MP03H09 (VHH, soluble VHH in periplasmic extract; also called clone nr) VHH: QVQLVESGGGLVQAGGSLRLSCAASGSIFSINAMGWFRQAPGKEREFVAAISRSGGSTAYVDSVKGRFTISRDNSKNMVHLQMNSLKSEDEAVYYCAATAAVGWTSRWITTDFDSWGQGTQVTVSS |
| 0.38 OD450 nm | 0.00122 s⁻¹ | – | FJ1427_P035MP03G11 (VHH, soluble VHH in periplasmic extract; also called clone nr) VHH: EVQLVESGGGLVQAGGSLRLSCAASGDVFVRYTMAWFRQAPGKEREFVASVTDSGRTTDYVDSVKGRFTVSRDNAKNTVYLQMNNLKPEDTAVYYCAANTDYFQIRSLEFNTWGQGTQVTVSS |
| 0.649 OD450 nm | 0.00172 s⁻¹ | – | FJ1427_P035MP03H07 (VHH, soluble VHH in periplasmic extract; also called clone nr) VHH: EVQLVESGGGLVQAGGSLRLSCVVSGDVFVRYTMAWFRQAPGKEREFVAAVTDSGRTTEYVDSVKGRFTVSRDNAKNTVYLQMNNLKPEDTAVYYCAANTDYFQIRSVDNNAWGQGTQVTVSS |
| 0.348 OD450 nm | 0.000561 s⁻¹ | – | FJ1427_P035MP06A01 (VHH, soluble VHH in periplasmic extract; also called clone nr) VHH: QVQLVESGGGLVQAGGSLRLACALSGDVFVRYTMAWFRQAPGKEREFVASVTDSGRTTDYVASVQGRFTVSRDNNKNTVYLQMNSLKPEDTAVYYCAANTDYFQIRSLDRNTWGQGTQVTVSS |
| 0.72 OD450 nm | 0.00101 s⁻¹ | – | FJ1427_P035MP06H01 (VHH, soluble VHH in periplasmic extract; also called clone nr) VHH: EVQLVESGGGLVQAGGSLRLSCAVSGDVFVRYTMAWFRQAPGKEREFVASVTDSGRTTDYVHSVKGRFTVSRDNAKNTVYLQMNNLKPEDTAVYYCAANTDYFQIKSLDANTWGQGTQVTVSS |
| 0.435 OD450 nm | 0.000853 s⁻¹ | – | FJ1427_P035MP06B02 (VHH, soluble VHH in periplasmic extract; also called clone nr; 490) VHH: QVQLVESGGGLVQAGGSLRLSCVVSGDVFVRYTMAWFRQAPGKEREFVAAVTDSGRTTEYVDSVKGRFTVSRDNAKNTVYLQMNNLKPEDTAVYYCAANTDYFQIRSVDNNAWGQGTQVTVSS |
| 1.34 OD450 nm | 0.000544 s⁻¹ | – | FJ1427_P035MP06C01 (VHH, soluble VHH in periplasmic extract; also called clone nr) VHH: QVQLVESGGGLVQAGGSLRLSCAASGDVFVRYTMAWFRQAPGKEREFVASVTDSGRTTDYVDSVKGRFTVSRDNAKNTVYLQMNALKPEDTAVYYCAANTDYFQIKSLDLNTWGQGTQVTVSS |
| 0.148 OD450 nm | 0.00149 s⁻¹ | – | FJ1427_P035MP06E02 (VHH, soluble VHH in periplasmic extract; also called clone nr) VHH: QVQLVESGGGLVQAGGSLRLSCAVSGDVFVRYTMAWFRQAPGKEREFVATVTDSGRTTEYVDSVKGRFTVSRDNAKNTVYLQMNNLKPEDTAVYYCAANTDYFRIRSLDANTWGQGTQVTVSS |
| 0.201 OD450 nm | 0.00286 s⁻¹ | – | FJ1427_P035MP03G07 (VHH, soluble VHH in periplasmic extract; also called clone nr) VHH: QVQLVESGGGLVQAGGSLRLSCAASGRTFSSDAKGWFRQAPGKEREFVAAITWAGRGTDYADSVKGRFTITRDNAKNMVYLQMSNLKPEDTAVYYCALNPEGVIGPYFRNSNRYNYWGQGTQVTVSS |

The next lines start with the binder.

| Binder | P.E. binding ELISA OD (human IL-2Rβ [1]) | koff (human IL-2Rβ [2]) | OD (PE binding ELISA) [3] |
| --- | --- | --- | --- |
| FJ1427 P035MP03C12 (VHH, soluble VHH in periplasmic extract; also called clone nr) VHH: QVQLVESGGGLVQAGGSLRLSCAASGRAFSTYSMGWFRQTPGKEREFVAIISESGGIIDYGDSVKGRFTLSRDNAKNTVSLQMSSLQPEDTAVYYCAAARDWFARTAYQYDYWGQGTQVTVSA | 0.321 OD450 nm | 0.0014 s⁻¹ | – |
| FJ1427 P035MP03F11 (VHH, soluble VHH in periplasmic extract; also called clone nr) VHH: QVQLVESGGGLAQAGGSLRLSCAASGRTFSQDAKAWFRQAPGKEREFVAAITWSGRDTDYADSVKGRFTIARDNAKNTVYLQMDSLKPEDTAVYYCAVYPQGTIGPYFRSSNHYDYWGQGTQVTVSS | 0.474 OD450 nm | 0.000277 s⁻¹ | – |
| FJ1427_P035MP03D10 (VHH, soluble VHH in periplasmic extract; also called clone nr) VHH: QVQLQESGGGLVQAGDSLRLSCVVSGRDFSGYTMGWFRQPPGKEREFVALITWSTGRVHYTDSVEGRFTISRDSAKNTVYLQMNSLKPEDTAVYTCAAGRVGYTTNLHSYDYSGQGTQVIVSA | 0.118 OD450 nm | 0.0012 s⁻¹ | – |
| FJ1427 P035MP03E05 (VHH, soluble VHH in periplasmic extract; also called clone nr) VHH: EVQLVESGGGLVQAGGSLRLSCAVSGVIFWSDVVGWYRQASGKQRELVATINLDDTKHYGEVVKGRFAISRDSHKNAYYLQLNSLKPEDTAVYYCNVRRGSEFYWGQGTQVTVSS | 0.23 OD450 nm | 0.000526 s⁻¹ | – |
| FJ1427_P035MP03E08 (VHH, soluble VHH in periplasmic extract; also called clone nr) VHH: QVQLVESGGGLVQAGGSLRLSCAAAGRAIENYPVGWFRRAPGKEREFVAAITWISGSTLYADSVKGRFTISRDNAKNTVYLQMSSLKPEDTALYYCAAALKTITRGQNDYSYWGQGTQVTVSS | 1.11 OD450 nm | 0.000149 s⁻¹ | – |
| FJ1427 P035MP03F09 (VHH, soluble VHH in periplasmic extract; also called clone nr) VHH: EVQLVESGGGLVQAGGSLTLSCAASGRAFSNYPVGWFRQAPGKEREFVAAITWLSGSTLYADSVEGRFTISRDNAKNTVYLLMSSLKPEDTALYFCAAALKTITRGQNDYSYWGQGTQVTVSS | 0.621 OD450 nm | 0.000347 s⁻¹ | – |
| FJ1427_P035MP03A07 (VHH, soluble VHH in periplasmic extract; also called clone nr) VHH: QVQLVESGGGLVEAGGSLRLSCAASGRAFNNFPMGWFRQAPGKEREFVAAITWISGSTLYADSVKGRFTISRDKSKNTVYLQMSGLKPEDTALYYCAAALKTITRGQHDYTYWGQGTQVTVSS | 0.307 OD450 nm | 0.000281 s⁻¹ | – |
| FJ1427_P035MP03E10 (VHH, soluble VHH in periplasmic extract; also called clone nr) VHH: EVQLVESGGGLVQPGGSLRLSCAASGFTFRNYAMSWVRQAPGKGLEWVGGITGEGLGTIYQDSVEGRFTISRNNAKNTLYLQMNSLRSEDTAVYYCTKMASGTLFRDKPYEYTSRGQGTQVTVSS | 0.398 OD450 nm | 0.00207 s⁻¹ | – |
| 35-MP07G01 (VHH, VHH in periplasmic extract; also called FJ1427_P035MP07G01; clone nr) VHH: QVQLQESGGGLVQGGGSLRLSCAASGGIFSSYAMGWFRQAPGKEREFVAAISRSGRSTNYADSVKGRFTISRDNAKSTVYLQMNSLKPEETAVYYCAAGRYYNSAYDPSPGDFGSWGHGTQVTVSS | – | – | 0.134 OD450 nm |
| FJ1427 P035MP03A06 (VHH, soluble VHH in periplasmic extract; also called clone nr) VHH: EVQLVESGGGLVQTGGSLRLSCAVSGSRFISDVMGWYRQVPGKARELVADMADGGSAKYADSVKGRFSIVRDSGKSTMYLQMSSLKPEDTGMYYCKAGLWIAGRHSDYWGQGTQVTVSS | 0.393 OD450 nm | 0.000195 s⁻¹ | – |
| FJ1427 P035MP03H10 (VHH, soluble VHH in periplasmic extract; also called clone nr) VHH: QVQLVESGGGLVQAGGSLRLSCAASGRTFSTTEMGWFRQAPGKEREFVAAITWTGRGTMYAESVEGRFTISRENAKNMVYLQMNSLKPEDTAIYYCAAARRGRAAVRSEGGYDFWGQGTQVTVSS | 0.578 OD450 nm | 0.00109 s⁻¹ | – |
| FJ1427 P035MP06G01 (VHH, soluble VHH in periplasmic extract; also called clone nr) VHH: EVQLVESGGGLVQAGDSLRLSCVVSGRGFSTYTMGWFRQAPGKEREFVAAITWSTGRTSYADSVKGRFTISRENAENTVYLQMNSLELEDTAVYYCATDQVLWTTRPRDMRYWGQGTQVTVSF | 0.557 OD450 nm | 0.000143 s⁻¹ | – |
| FJ1427 P035MP03D11 (VHH, soluble VHH in periplasmic extract; also called clone nr) VHH: QVQLVESGGGLVQAGGSLRLSCAASGRTFSTTDVGWFRQAPGKEREFVAAITWSSHSTLYADSVEGRFTVTRENAKNTVYLQMNSLKPEDTAVYYCAAVRRGWAVVRTEGAYDFWGQGTQVTVSA | 0.118 OD450 nm | 0.00102 s⁻¹ | – |
| FJ1427_P035MP03C07 (VHH, soluble VHH in periplasmic extract; also called clone nr) VHH: QVQLVESGGGLVQAGDSLRLSCAASGRSLSTDCMGWVRQAPGKEREFVAGITWGTGSTLYADSVEGRFTISKDNAKNTGYLQMSSLKPEDTAVYYCAVDRYCYRGTVYRDWGRGTQVTVSS | 0.372 OD450 nm | 0.000533 s⁻¹ | – |
| FJ1427_P035MP03A09 (VHH, soluble VHH in periplasmic extract; also called clone nr) VHH: QVQLVESGGGLVQAGGSLRLACAASGRTFSTLTMGWFRQAPGKEREFVAGISPSGGYAWHADSVKGRFTIDRDNAKNTVYLQTRSLRPEDTAVYYCAADHPPYGAVASRSEYEYDDWGPGTRVTVSS | 0.208 OD450 nm | 0.00048 s⁻¹ | – |
